Laboratory results as given in patent US20240409645A1 (DUALYX, published 2024).

T1: human IL-2Rβ (human, UniProt P14784 27-240, limits assumed)
T1 construct: recombinant protein, coated or immobilised; also called hu IL-2R; IL-2R beta
T1 sequence: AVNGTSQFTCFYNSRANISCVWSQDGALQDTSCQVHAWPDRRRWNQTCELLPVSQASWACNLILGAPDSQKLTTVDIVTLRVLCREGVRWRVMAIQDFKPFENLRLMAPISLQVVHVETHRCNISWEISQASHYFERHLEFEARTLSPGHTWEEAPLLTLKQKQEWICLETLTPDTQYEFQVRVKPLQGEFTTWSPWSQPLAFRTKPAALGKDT


Tests used:
human IL-2Rβ [1] = molecular target: T1, human IL-2Rβ; experiment: P.E. ELISA, coated protein
Protocol: In a binding ELISA, human or mouse IL-2Rα, IL-2Rβ and IL-2Rγ proteins were coated directly on maxisorp microtiter plates overnight at 4° C. Free binding sites were blocked using 4% Marvel in PBS for 1 hour. Next, 1:5 dilution of P.E. in 1% Marvel/PBS were added to wells and incubated for 1 hour. […] Binding specificity was determined based on O.D. at 450 nm values compared to negative controls.

human IL-2Rβ [2] = molecular target: T1, human IL-2Rβ; experiment: SPR, P.E. off-rate
Protocol: SPR was performed to determine dissociation rates using Biacore 3000 instrument (GE Healthcare). Briefly, human and mouse IL-2R proteins were immobilized on carboxylmethyl dextran sensor chip (CM5) at approximately 2500 RUs using amine coupling in acetate buffer (GE Healthcare). The VHH-containing P.E. were loaded with a flow rate of 30 uL/min and the off-rates were measured over a 120s period.

Row | Binder | P.E. binding ELISA OD (human IL-2Rβ [1]) | koff (human IL-2Rβ [2])
1 | FJ1427_P035MP02E03 (VHH, soluble VHH in periplasmic extract; also called clone nr) VHH: EVQLVESGGGSVQTGGSLRLSCVVSGSHFISDVMGWYRQVPGKQRELVADMADGGSVKYGDSVKGRFTILRDSVKNTVTLQMSSLNPEDTGVYYCKAGLWITGRHFDYWGQGTQVTVTS | 0.242 OD450 nm | 0.000169 s⁻¹
2 | FJ1427_P035MP02F03 (VHH, soluble VHH in periplasmic extract; also called clone nr) VHH: EVQLVESGGGLVQAGGSLRLSCAASGGTFSSYAMGWFRQAPGKEREFVAATTRGGGRTMYAVSTEGRFTCSRDNAKNTVYLLMNSLKPEDTAVYYCAAMTSYYSGTYYPDSSDFDIWGQGTQVTVSS | 0.212 OD450 nm | 0.000828 s⁻¹
3 | FJ1427_P035MP02B04 (VHH, soluble VHH in periplasmic extract; also called clone nr) VHH: EVQLVESGGGLVQAGGSLGLSCAASGGTFSSYAMGWFRQAPGKEREFVAATTRGGGRTMYAVSTEGRFTCSRDNAKNTVYLQMNSLKPKDTAIYYCAAMTSYYSGTYYPDSSDFDIWGQGTQVTVSS | 0.375 OD450 nm | 0.000449 s⁻¹
4 | FJ1427_P035MP02D03 (VHH, soluble VHH in periplasmic extract; also called clone nr) VHH: QVQLVESGGGLVQAGGPLRLSCAASGGTFSSYAMGWFRQAPGKEREFVAATTRGGGRTMYAVSTEGRFTCSRDNAKNTVYLLMNSLKPEDTAVYYCAAMTSYYSGTYYPDSSDFDIWGQGTQVTVSS | 0.286 OD450 nm | 0.000226 s⁻¹
5 | FJ1427 P035MP02H04 (VHH, soluble VHH in periplasmic extract; also called clone nr) VHH: QVQLVESGGGLVQAGDSLRLSCATSGLTFSSYALGWFRQAPGKKREFVAATTRGGGRTMYAVSTEGRFTCSRDNDKNTVYLLMNSLKPKDTAVYYCAAMTSYYSGTYYPDSSDFDIWGQGTQVTVSS | 0.376 OD450 nm | 0.00051 s⁻¹
6 | FJ1427_P035MP02E04 (VHH, soluble VHH in periplasmic extract; also called clone nr) VHH: EVQLVESGGGLVQAGGSLRLSCAASGGTFSSYAMGWFRQAPGKEREFVAATTRGGGRTMYAVSTEGRFTCSRDNAKNTVYLQMNSLKPKDTAIYYCAAMTSYYSGTYYPDSSDFDIWGQGTQVTVSS | 0.255 OD450 nm | 0.000716 s⁻¹
7 | FJ1427_P035MP02A06 (VHH, soluble VHH in periplasmic extract; also called clone nr) VHH: QVQLQESGGGLVQAGGSLRLSCAASGGTFSSYAMGWFRQAPGKEREFVAATTRGGGRTMYAVSTEGRFTCSRDNDKNTVYLLMNSLKPKDTAVYYCAAMTSYYSGTYYPDSSDFDIWGQGTQVTVSS | 2.55 OD450 nm | 0.000484 s⁻¹
8 | FJ1427 P035MP02C01 (VHH, soluble VHH in periplasmic extract; also called clone nr; 99) VHH: QVQLVESGGGLVQPGGSLGLSCAASGFTFDNYAMSWVRQAPGKGLEWVSSITGAGRGTHYADSVKGRFTISRDNAKNTLYLQMNSLKPEDTAVYYCAKYSSSTYYPPTPARGTDYRGPGTQVTVSS | 0.7 OD450 nm | 0.000789 s⁻¹
9 | FJ1427_P035MP02G03 (VHH, soluble VHH in periplasmic extract; also called clone nr) VHH: QVQLVESGGGLVQPGGSLGLSCAASGFTFSNYAMSWVRQAPGKGLEWVASITGFGRGTDYADSVKGRFTVSRDNAKNTLYLQMNSLKPEDTAVYYCAKYSSSTYYPPTPARGRDYRGQGTQVTVSS | 0.197 OD450 nm | 0.00293 s⁻¹
10 | FJ1427 P035MP02E06 (VHH, soluble VHH in periplasmic extract; also called 15-MP02E06; clone nr) VHH: QVQLVESGGGSVQPGGSLRLSCAASGFTFSNYAMSWVRQAPGKGLEWVASITGFGRGTDYADSVKGRFTISRDNAEDTLYLQMNSLKPEDTAVYYCAKYSSSTYYPPTPARGRDYRGQGTQVTVSS | 0.581 OD450 nm | 0.00169 s⁻¹
11 | FJ1427_P035MP02A03 (VHH, soluble VHH in periplasmic extract; also called clone nr) VHH: QVQLVESGGGLVQPGGSLRLSCAASGFTFSNYAMSWVRQAPGKGLEWVSSITGAGRGTYYAESVKGRFTISRDNDKNTLYLQMNSLKPEDTAVYYCAKYDSSTFYPPTPARGIADRGQGTRVTVSS | 0.207 OD450 nm | 0.000571 s⁻¹
12 | FJ1427 P035MP02D05 (VHH, soluble VHH in periplasmic extract; also called clone nr) VHH: QVQLVESGGGLVQPGESLGLSCAASGFTFSNYAMSWVRQAPGKGLEWVSSITGAGRGTDYADSVKGRFTISRDNAKNTLYLQMNSLKPEDTAVYYCAKYSSGTYYPPTPVRGTDYRGQGTQVTVSS | 0.118 OD450 nm | 0.00279 s⁻¹
13 | FJ1427 P035MP02C06 (VHH, soluble VHH in periplasmic extract; also called clone nr) VHH: QLQLVESGGGLVQPGGSLELSCAASGFTFSNYAMSWVRQAPGKGLEWVSSITGFGRGTDYADSVKGRFTISRDNAKNTLYLQMNSLKPEDTAVYYCARYSSSTYYPPTPARGRDYRGQGTQVTVSS | 0.351 OD450 nm | 0.00217 s⁻¹
14 | FJ1427_P035MP02B06 (VHH, soluble VHH in periplasmic extract; also called clone nr) VHH: QVQLVESGGGLVQPGESLGLSCAASGFTFSNYAMSWVRQAPGKGLEWVSSITGAGRGTDYADSVKGRFTISRDNAKNTLYLQMNSLKPEDTAVYYCAKYSSGTYYPPTPVRGTDYRGQGTQVTVSS | 0.125 OD450 nm | 0.0046 s⁻¹
15 | FJ1427_P035MP02C04 (VHH, soluble VHH in periplasmic extract; also called clone nr) VHH: QVQLVESGGGLVQPGGSLELSCAASGFTFSNYAMSWVRQAPGKGLEWVSSITGFGRGTDYADSVKGRFTISRDNDKNTLYLQMNSLKPEDTAVYYCARYSSSTYYPPTPARGRDYRGQGTQVTVSS | 0.424 OD450 nm | 0.00255 s⁻¹
16 | FJ1427_P035MP02A02 (VHH, soluble VHH in periplasmic extract; also called clone nr) VHH: QVQLVESGGGLVQPGGSLRLSCAASGFTFDNYAMTWVRQAPGKGLEWVSSITGAGRGTHYADSVKGRFTISRDNAKNTLYLQVNSLKPEDTAVYYCARYSSSTYYPTTPVRGTDYRGQGTQVTVSS | 0.223 OD450 nm | 0.00262 s⁻¹
17 | FJ1427 P035MP02E02 (VHH, soluble VHH in periplasmic extract; also called clone nr) VHH: EVQLVESGGGLVQTGGSLRLSCAASGSQFINDVMGWYRQVPGKQRELVADMDDTGSTKYADSVKGRFTILRDSVKNTAYLQMSNLKPEDTGVYYCKAGLWIKGRHSDYWGQGTQVTVSS | 0.254 OD450 nm | 0.000269 s⁻¹
18 | FJ1427 P035MP02C05 (VHH, soluble VHH in periplasmic extract; also called clone nr) VHH: QVQLVESGGGLVQTGGSLRLSCAVSGSRFISDVMGWYRQVPGKQRELVADMADGGSAKYADSVKGRFSILRDSVKNTVYLQMSSLKPEDTGIYYCKAGLWIAGRHSDYWGQGTQVTVSS | 0.237 OD450 nm | 0.000346 s⁻¹
19 | FJ1427 P035MP02G05 (VHH, soluble VHH in periplasmic extract; also called clone nr) VHH: EVQLVESGGGLVQTGGSLRLSCAASGSQFINDVTGWYRQVPGKQRELVADMDDTGSTKYADSVKGRFTILRDSVKNTAYLQMSNLKPEDTGVYYCKAGLWIKGRHSDYWGQGTQVTVSS | 0.567 OD450 nm | 0.000432 s⁻¹
20 | FJ1427_P035MP02B05 (VHH, soluble VHH in periplasmic extract; also called clone nr; 130) VHH: EVQLVESGGGLVQTGGSLRLSCAASGSQFINDVMGWYRQVPGKQRELVADMDDTGSTKYADSVKGRFTILRDSVKNTAYLQMSNLKPEDTGVYYCKAGLWIKGRHFDYWGQGTQVTVSS | 0.553 OD450 nm | 0.000292 s⁻¹
21 | FJ1427 P035MP02D01 (VHH, soluble VHH in periplasmic extract; also called clone nr; 100) VHH: QVQLQESGGGLVQTGGSLRLSCAASGSQFINDVMGWYRQVPGKQRELVADMDDTGSTKYADSVKGRFTILRDSVKNTAYLQMSNLKPEDTGVYYCKAGLWIKGRHSDYWGQGTQVTVSS | 0.573 OD450 nm | 0.000167 s⁻¹
22 | FJ1427 P035MP02A04 (VHH, soluble VHH in periplasmic extract; also called clone nr) VHH: EVQLVESGGGLVQTGGSLRLSCTASGSQFINDVMGWYRQVPGKQRELVADMDDTGSTKYADSVNGRFTILRDSVKNTAYLQMSNLKPEDTGVYYCKAGLWIKGRHSDYWGQGTQVTVSS | 0.533 OD450 nm | 0.000368 s⁻¹
23 | FJ1427 P035MP02F04 (VHH, soluble VHH in periplasmic extract; also called clone nr) VHH: EVQLVESGGGLVQTGGSLRLSCAASGSQFINDVMGWYRQVPGKQRELVADMDDTGSTKYADSVKGRFTILRDSVKNTAYLQMSNLKPEDTGVYYCKAGLWIKGRHFDYWGQGTQVTVSS | 0.516 OD450 nm | 0.000343 s⁻¹
24 | FJ1427 P035MP02C03 (VHH, soluble VHH in periplasmic extract; also called 14-MP02C03; clone nr) VHH: EVQLVESGGGLVQTGGSLRLSCAASGSQFINDVMGWYRQVPGKQRELVADMDDTGSTEYADSVKGRFTILRDSVKNTAYLQMSNLKPEDTGVYYCKAGLWIKGRHFDYWGQGTQVTVSS | 0.183 OD450 nm | 0.000714 s⁻¹
25 | FJ1427_P035MP02B01 (VHH, soluble VHH in periplasmic extract; also called clone nr; 98) VHH: QVQLVESGGGLVQTGGSLRLSCAASGSQFINDVMGWYRQVPGKQRELVADMDDTGSTKYADSVKGRFTILRDSVKNTAYLQMSNLKPEDTGVYYCKAGLWIKGRHFDYWGQGTQVTVSS | 0.271 OD450 nm | 0.000119 s⁻¹
